Experimental data from patent US7659376B2, “Antibody that binds glyphosate resistance protein” (priority 2002, dated 2010).

B1: GRG-1: glyphosate resistance protein (SEQ ID NO:2), homologous to EPSP synthases; expressed in E. coli from plasmid pPEH306 (protein)
chain: MKVTIQPGDLTGILQSPASKSSMQRACAAALVAKGISEIINPGHSNDDKAARDIVSRLGARLEDQPDGSLQITSEGVKPVAPFIDCGESGLSIRMFTPIVALSKEEVTIKGSGSLVTRPMDFFDEILPHLGVKVKSNQGKLPLVIQGPLKPADVTVDGSLSSQFLTGLLLAYAAADASDVAIKVTNLKSRPYIDLTLDVMKRFGLKTPENRNYEEFYFKAGNVYDETKMQRYTVEGDWSGGAFLLVAGAIAGPITVRGLDIASTQADKAIVQALMSANAGIAIDAKEIKLHPADLNAFEFDATDCPDLFPPLVALASYCKGETKIKGVSRLAHKESDRGLTLQDEFGKMGVEIHLEGDLMRVIGGKGVKGAEVSSRHDHRIAMACAVAALKAVGETTIEHAEAVNKSYPDFYSDLKQLGGVVSLNHQFNFS
modifications: Enterobacteriaceae
notes: expressed in E. coli from plasmid pPEH306
B2: aroA: wild-type E. coli aroA (EPSP synthase), expressed from plasmid pPEH307 (protein, UniProt P0A6D3 1-427, looked up)
3-phosphoshikimate …: MESLTLQPIARVDGTINLPGSKSVSNRALLLAALAHGKTVLTNLLDSDDVRHMLNALTALGVSYTLSADRTRCEIIGNGGPLHAEGALELFLGNAGTAMRPLAAALCLGSNDIVLTGEPRMKERPIGHLVDALRLGGAKITYLEQENYPPLRLQGGFTGGNVDVDGSVSSQFLTALLMTAPLAPEDTVIRIKGDLVSKPYIDITLNLMKTFGVEIENQHYQQFVVKGGQSYQSPGTYLVEGDASSASYFLAAAAIKGGTVKVTGIGRNSMQGDIRFADVLEKMGATICWGDDYISCTRGELNAIDMDMNHIPDAAMTIATAALFAKGTTTLRNIYNWRVKETDRLFAMATELRKVGAEVEEGHDYIRITPPEKLNFAEIATYNDHRMAMCFSLVALSDTPVTILDPKCTAKTFPDYFEQLARISQAA

Tests used:
[1] = system: E. coli XL1 Blue MRF′; experiment: Growth of GRG-1 or aroA expressing strains in M9 liquid medium with glyphosate, absorbance at 600 nm at 8 hours; assay type: cell-based; settings: for absorbance of the culture at 600 nm: 8 hours, mean of three cultures
Excerpt: Strains engineered to express either GRG-1 or the wild-type E. coli aroA were engineered as described in the following way. A customized expression vector, pPEH304 Cm was constructed. The essential features of pPEH304 Clare the origin of replication from pBR322, a chloramphenicol acetyl transferase gene (for selection and maintenance of the plasmid), the lacI gene, the Ptac promoter and the rrnB transcriptional terminator. The GRG-1 open reading frame was amplified as described in Example 7. […] The aroA open reading frame was amplified by PCR from E. coli strain XL1 Blue MRF′ (Stratagene). During PCR, restriction sites were added to facilitate cloning into pPEH304 Cm.
The PCR products for GRG-1 and aroA were cloned into the expression vector pPEH304 Cm to yield the plasmids pPEH306 and pPEH307, respectively, and transformed into E. coli XL1 Blue MRF′. Correct clones were identified by standard methods known in the art. The sequence of the GRG-1 and aroA open reading frames in expression clones in pPEH306 and pPEH307 were confirmed by DNA sequencing.
Strains were grown to saturation (overnight) in Luria Broth (Sambrook and Russell, 2001, supra) then diluted 1:100 in M9 liquid medium (recipe) containing 0 to 30 mM glyphosate, and supplemented with 10 g glucose, 10 mg Thiamine-HCl and 25 mg L-Proline. High level transcription from the Ptac promoter was stimulated by including 0.1 mM IPTG in a subset of the cultures (noted as +IPTG in Table 7).
Each culture was grown in a 3 ml tube at 37° C. on a culture wheel. There were three replicate tubes of each treatment. After 8 hours of growth, 310 microliters of culture was withdrawn and placed into a 96-well plate. The absorbance of the culture at 600 nm was measured on a Spectramax 96 well plate reader. The experiment was performed in triplicate, and the values in Table 7 reflect the means of three cultures.

[2] = system: E. coli XL1 Blue MRF′; experiment: Growth of GRG-1 or aroA expressing strains in M63 liquid medium with glyphosate, absorbance at 600 nm at 24 hours; assay type: cell-based; settings: M63, +IPTG
Method: In addition, these strains engineered to express either GRG-1 or the wild-type E. coli aroA, were tested in another minimal media, M63, with glyphosate concentrations up to 150 mM. 1×M63 was supplemented with 10 g glucose, 10 mg Thiamine-HCl and 25 mg L-Proline. The strains were grown to saturation (overnight) in Luria Broth (Sambrook and Russell, 2001, supra) then washed two times in M63 media (adapted from Current Protocols in Molecular Biology, Greene Publishing and Wiley-Interscience, New York) before being diluted 1:100 in fresh M63 liquid medium containing 0 to 150 mM glyphosate. High level transcription from the Ptac promoter was stimulated by including 0.1 mM IPTG all of the cultures.
Each culture was grown in 2 mls of media in 10 ml tubes at 37° C. in a shaker. At 24 hours, 300 microliters of the culture was withdrawn and placed into a 96-well assay plate. The absorbance of the culture at 600 nm was measured on a Spectromax 96 well plate reader. The values in Table 8 reflect this experiment at 24 hours (NT not tested).

[3] = +IPTG (0.1 mM), 0 mM glyphosate
[4] = +IPTG (0.1 mM), 5 mM glyphosate
[5] = +IPTG (0.1 mM), 10 mM glyphosate
[6] = +IPTG (0.1 mM), 20 mM glyphosate
[7] = +IPTG (0.1 mM), 30 mM glyphosate
[8] = glyphosate concentration 0, 24 hours
[9] = glyphosate concentration 5 (mM), 24 hours
[10] = glyphosate concentration 30 (mM), 24 hours
[11] = glyphosate concentration 60 (mM), 24 hours

| Molecule | absorbance of the culture at 600 nm [1, 3] | absorbance of the culture at 600 nm [1, 4] | absorbance of the culture at 600 nm [1, 5] | absorbance of the culture at 600 nm [1, 6] | absorbance of the culture at 600 nm [1, 7] | absorbance of the culture at 600 nm ([1]; no IPTG, 0 mM glyphosate) | absorbance of the culture at 600 nm ([1]; no IPTG, 5 mM glyphosate) | absorbance of the culture at 600 nm ([1]; no IPTG, 10 mM glyphosate) | absorbance of the culture at 600 nm ([1]; no IPTG, 20 mM glyphosate) | absorbance of the culture at 600 nm ([1]; no IPTG, 30 mM glyphosate) | glyphosate concentration in whose presence survival and growth of E. coli is allowed ([1]; summary of Table 7) | absorbance of the culture at 600 nm [2, 8] | absorbance of the culture at 600 nm [2, 9] | absorbance of the culture at 600 nm [2, 10] | absorbance of the culture at 600 nm [2, 11] | absorbance of the culture at 600 nm ([2]; glyphosate concentration 150 (mM), 24 hours) | glyphosate concentrations that inhibit growth of expressing cells ([1]; summary of Table 7) |
| --- | --- | --- | --- | --- | --- | --- | --- | --- | --- | --- | --- | --- | --- | --- | --- | --- | --- |
| B1 | 0.100 | 0.104 | 0.117 | 0.125 | 0.135 | 0.092 | 0.102 | 0.110 | 0.112 | 0.104 | 30 mM | 0.4943 | 0.7192 | 0.7884 | 0.789 | 0.951 | – |
| B2 | 0.075 | 0.068 | 0.063 | 0.056 | 0.052 | 0.095 | 0.048 | 0.046 | 0.047 | 0.048 | – | 0.5982 | 0.1209 | 0.0276 | 0.0298 | – | ≥ 10 mM |
